Values of other authors as cited in PMC4850115.
pKd: −log10 of the molar value.

Molecular target: p38 (Homo sapiens) (UniProt Q16539)
Sequence of UniProt Q16539 (Q16539 2-360): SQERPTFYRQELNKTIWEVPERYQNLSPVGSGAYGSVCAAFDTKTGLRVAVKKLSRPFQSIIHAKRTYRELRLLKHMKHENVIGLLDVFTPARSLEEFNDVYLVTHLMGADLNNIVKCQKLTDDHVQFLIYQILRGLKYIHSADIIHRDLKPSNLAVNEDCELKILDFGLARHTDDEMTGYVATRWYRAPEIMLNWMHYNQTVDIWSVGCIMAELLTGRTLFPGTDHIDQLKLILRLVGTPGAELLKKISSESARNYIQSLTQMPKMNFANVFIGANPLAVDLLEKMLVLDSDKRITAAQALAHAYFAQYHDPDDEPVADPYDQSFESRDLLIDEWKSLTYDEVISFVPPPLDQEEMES

pKd: 7.70
Substance: MK2 370-400 (from UniProt P49137)
